To fix the notation:
B1: human CNGA4 subunit (natural protein)
chain: MSQDTKVKTTESSPPAPSKARKLLPVLDPSGDYYYWWLNTMVFPVMYNLIILVCRACFPDLQHGYLVAWLVLDYTSDLLYLLDMVVRFHTGFLEQGILVVDKGRISSRYVRTWSFFLDLASLMPTDVVYVRLGPHTPTLRLNRFLRAPRLFEAFDRTETRTAYPNAFRIAKLMLYIFVVIHWNSCLYFALSRYLGFGRDAWVYPDPAQPGFERLRRQYLYSFYFSTLILTTVGDTPPPAREEEYLFMVGDFLLAVMGFATIMGSMSSVIYNMNTADAAFYPDHALVKKYMKLQHVNRKLERRVIDWYQHLQINKKMTNEVAILQHLPERLRAEVAVSVHLSTLSRVQIFQNCEASLLEELVLKLQPQTYSPGEYVCRKGDIGQEMYIIREGQLAVVADDGITQYAVLGAGLYFGEISIINIKGNMSGNRRTANIKSLGYSDLFCLSKEDLREVLSEYPQAQTIMEEKGREILLKMNKLDVNAEAAEIALQEATESRLRGLDQQLDDLQTKFARLLAELESSALKIAYRIERLEWQTREWPMPEDLAEADDEGEPEEGTSKDEEGRASQEGPPGPE
notes: CNGA4, human; Expressed from a tri-cistronic construct with P2A peptides between neighbouring genes; remnants of P2A may remain at chain ends (surmise); source: HEK293F, BacMam, tri-cistronic P2A construct, purified within the CNGA2/A4/B1b complex (anti-Flag, Strep-Tactin, SEC); not shown: Flag, N-terminal, kept
B2: human CNGA2 subunit (natural protein)
chain: MTEKTNGVKSSPANNHNHHAPPAIKANGKDDHRTSSRPHSAADDDTSSELQRLADVDAPQQGRSGFRRIVRLVGIIREWANKNFREEEPRPDSFLERFRGPELQTVTTQEGDGKGDKDGEDKGTKKKFELFVLDPAGDWYYCWLFVIAMPVLYNWCLLVARACFSDLQKGYYLVWLVLDYVSDVVYIADLFIRLRTGFLEQGLLVKDTKKLRDNYIHTLQFKLDVASIIPTDLIYFAVDIHSPEVRFNRLLHFARMFEFFDRTETRTNYPNIFRISNLVLYILVIIHWNACIYYAISKSIGFGVDTWVYPNITDPEYGYLAREYIYCLYWSTLTLTTIGETPPPVKDEEYLFVIFDFLIGVLIFATIVGNVGSMISNMNATRAEFQAKIDAVKHYMQFRKVSKGMEAKVIRWFDYLWTNKKTVDEREILKNLPAKLRAEIAINVHLSTLKKVRIFHDCEAGLLVELVLKLRPQVFSPGDYICRKGDIGKEMYIIKEGKLAVVADDGVTQYALLSAGSCFGEISILNIKGSKMGNRRTANIRSLGYSDLFCLSKDDLMEAVTEYPDAKKVLEERGREILMKEGLLDENEVATSMEVDVQEKLGQLETNMETLYTRFGRLLAEYTGAQQKLKQRITVLETKMKQNNEDDYLSDGMNSPELAAADEP
notes: CNGA2, human; Expressed from a tri-cistronic construct with P2A peptides between neighbouring genes; remnants of P2A may remain at chain ends (surmise); Two copies stand in the heterotetramer; also called A2L; A2R; source: HEK293F, BacMam, tri-cistronic P2A construct, purified within the CNGA2/A4/B1b complex (anti-Flag, Strep-Tactin, SEC); not shown: Flag, N-terminal, kept

One data set deals with T1, human calmodulin (human, UniProt P0DP23 1-149).
T1 construct: calmodulin, human; The purified CaM (800 nM) and the endogenous HEK293 CaM of the patch-clamp recordings are written with this molecule; also called CaM; Ca^2+/CaM; source: HEK293F, BacMam, co-expressed with CNGA2/A4/B1b, co-purified (anti-Flag, Strep-Tactin, SEC); not shown: Strep, C-terminal, kept
The experiment in a line: cryo-EM structure; CNGA2/A4/B1b co-expressed with CaM, complex purified with 2 mM CaCl2 in digitonin; apo (no cAMP), closed state; focused refinement around the CLZ region. The following applies: both partners purified.

The target of data set [1] is T2, human CNGB1b subunit (shorter CNGB1 variant, amino acids 456-1251) (human, UniProt Q14028 456-1251).
T2 construct: CNGB1b, olfactory shorter variant of human CNGB1 lacking the N-terminal GARP domain, amino acids 456-1251 of CNGB1; Expressed from a tri-cistronic construct with P2A peptides between neighbouring genes; remnants of P2A may remain at chain ends (surmise); source: HEK293F, BacMam, tri-cistronic P2A construct, purified within the CNGA2/A4/B1b complex (anti-Flag, Strep-Tactin, SEC); not shown: Flag, …
T2 sequence (Q14028 456-1251, stated change not applied): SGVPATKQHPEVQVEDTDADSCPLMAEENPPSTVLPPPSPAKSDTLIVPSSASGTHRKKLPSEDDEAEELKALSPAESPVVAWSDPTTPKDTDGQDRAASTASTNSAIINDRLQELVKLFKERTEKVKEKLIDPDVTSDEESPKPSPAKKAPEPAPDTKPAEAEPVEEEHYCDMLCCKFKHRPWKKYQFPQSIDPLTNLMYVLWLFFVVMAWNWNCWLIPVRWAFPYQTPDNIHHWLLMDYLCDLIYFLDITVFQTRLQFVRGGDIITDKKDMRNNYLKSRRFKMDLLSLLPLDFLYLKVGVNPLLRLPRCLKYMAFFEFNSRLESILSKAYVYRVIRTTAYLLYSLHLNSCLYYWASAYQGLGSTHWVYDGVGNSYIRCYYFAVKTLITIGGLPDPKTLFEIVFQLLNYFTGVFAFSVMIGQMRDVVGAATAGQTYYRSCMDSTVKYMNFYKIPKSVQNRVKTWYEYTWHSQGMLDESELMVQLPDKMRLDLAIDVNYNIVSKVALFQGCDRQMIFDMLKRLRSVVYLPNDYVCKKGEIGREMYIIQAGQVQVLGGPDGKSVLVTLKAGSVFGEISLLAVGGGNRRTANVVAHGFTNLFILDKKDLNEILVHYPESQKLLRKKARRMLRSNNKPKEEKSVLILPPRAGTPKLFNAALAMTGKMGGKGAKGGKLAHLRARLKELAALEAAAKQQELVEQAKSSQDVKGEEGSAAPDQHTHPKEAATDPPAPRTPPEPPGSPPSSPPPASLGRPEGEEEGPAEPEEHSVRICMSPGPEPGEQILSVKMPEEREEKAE
The data set is described as above. Particulars: both partners purified.

The data set “human CNGA2 subunit” has as its target B2. The experiment in a line: cryo-EM structure; CNGA2/A4/B1b after removal of CaM by EGTA and SEC, incubated with 5 mM cAMP; cAMP-bound open state. Particulars: both partners purified.
Data set [2] deals with the molecule itself. Description: cryo-EM structure; CNGA2/A4/B1b co-expressed with CaM, complex purified with 2 mM CaCl2 in digitonin; apo (no cAMP), closed state; focused refinement around the CLZ region.

With B1, the binding result (with human calmodulin; in data set [1]; in the data set with human CNGA2 subunit) was “binds” in each case.
As for B2, the binding result in data set [1] and in data set [2] was “binds” throughout.

The record behind these values is article PMC12549891, “Structural mechanisms of assembly, gating, and calmodulin modulation of human olfactory CNG channel” (Nature Communications, 2025).
